In the supplement of paper PMC7125110:
± gives the standard error. For some of these results: Variants at the floor of the assay were thinned out.

B1: glmS ribozyme (parent)
chain: AUAAAAGCGCCAGAACUACAGAAAUGUAGUUGACGAGGAGGAGGUUUAUCGAAUUUUCGGCGGAUGCCUCCAAA

What was measured:
Details in all cases: with glucosamine-6-phosphate
[1] = variants of: B1; experiment: kcat; higher = faster cleavage; RNA array
Method in brief: (§1)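 A hybridised Cy3 probe tracked barcoded ribozyme variants, transcribed in situ by E. coli RNA polymerase on sequenced MiSeq chips, at 37 °C. The variants received 40 μM to 10 mM glucosamine-6-phosphate in HEPES/KCl/Mg(OAc)2 buffer. kobs came from decay fits and kcat and KM from weighted Michaelis–Menten fits.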

[2] = variants of: B1; experiment: KM; higher = weaker cofactor use; RNA array
Method in brief: as §1

[3] = variants of: B1; experiment: self-cleavage kobs at 2500 uM GlcN6P; higher = faster cleavage; RNA array
Method in brief: as §1

[4] = variants of: B1; experiment: self-cleavage kobs at 640 uM GlcN6P; higher = faster cleavage; RNA array
Method in brief: as §1

[5] = variants of: B1; experiment: self-cleavage kobs at 10000 uM GlcN6P; higher = faster cleavage; RNA array
Method in brief: as §1

[6] = variants of: B1; experiment: self-cleavage kobs at 40 uM GlcN6P; higher = faster cleavage; RNA array
Method in brief: as §1

[7] = variants of: B1; experiment: self-cleavage kobs at 160 uM GlcN6P; higher = faster cleavage; RNA array
Method in brief: as §1

Variant | kcat [1] [s⁻¹] | KM [2] [µM] | self-cleavage kobs at 2500 uM GlcN6P [3] [s⁻¹] | self-cleavage kobs at 640 uM GlcN6P [4] [s⁻¹] | self-cleavage kobs at 10000 uM GlcN6P [5] [s⁻¹] | self-cleavage kobs at 40 uM GlcN6P [6] [s⁻¹] | self-cleavage kobs at 160 uM GlcN6P [7] [s⁻¹]
G13A U57A | 5.51e-05 ± 4.2e-06 | 370 ± 130 | 4.76e-05 ± 1.5e-05 | – | – | – | –
G32A U46G | 0.000631 ± 7.4e-05 | 3220 ± 660 | 0.000303 ± 5.6e-05 | 9.72e-05 ± 1.8e-05 | 0.000468 ± 6.8e-05 | – | –
U31G G37U C68A | 2.76e-05 ± 6.9e-06 | – | – | – | – | – | –
C10G G62U | < 1e-05 | – | – | – | – | < 1e-05 | –
U45G C67G | 0.000915 ± 0.00011 | 1420 ± 340 | 0.000477 ± 0.00011 | 0.000303 ± 4.8e-05 | 0.000846 ± 0.00011 | 3.25e-05 ± 1.2e-05 | 7.93e-05 ± 2.7e-05
A15U U56C | 0.00101 ± 4.2e-05 | 2320 ± 150 | 0.000551 ± 6.9e-05 | 0.000221 ± 2.7e-05 | 0.0008 ± 9.1e-05 | – | 6.26e-05 ± 9.4e-06
G32A G40U | 0.00051 ± 0.0001 | 3900 ± 1200 | 0.000169 ± 2.5e-05 | 7.8e-05 ± 9.2e-06 | 0.000401 ± 5.6e-05 | – | –
C16U U57G | 7.51e-05 ± 1.3e-05 | – | 4.22e-05 ± 8.4e-06 | 3.61e-05 ± 1.3e-05 | 7.03e-05 ± 1.1e-05 | – | –
G40A U55C A64G | 4.82e-05 ± 7.4e-06 | 7420 ± 2400 | – | – | – | – | –
G41U C68U | 5.17e-05 ± 8.8e-06 | – | – | – | – | – | < 1e-05
G29A U31C | 0.000716 ± 0.00016 | 2070 ± 780 | 0.000333 ± 7.1e-05 | 0.000161 ± 3e-05 | 0.000668 ± 0.00012 | – | 7.58e-05 ± 2e-05
G13C A53C | 2.72e-05 ± 1.4e-06 | 802 ± 260 | – | – | 2.49e-05 ± 1.2e-05 | < 1e-05 | < 1e-05
A64G C71A | 0.000799 ± 8.2e-05 | 1410 ± 280 | 0.00059 ± 7.4e-05 | 0.000265 ± 3.8e-05 | 0.000652 ± 7.6e-05 | – | 7.29e-05 ± 1.4e-05
G41U U49G | 3.94e-05 ± 6e-06 | – | – | – | 3.38e-05 ± 1e-05 | < 1e-05 | –
C61U G63C | < 1e-05 | – | < 1e-05 | – | – | – | –
G32A C61U | < 1e-05 | – | – | < 1e-05 | – | – | < 1e-05
G37A U45G C70G | 1.07e-05 ± 4e-06 | – | – | – | – | – | –
C50G U55G C67G | 2.81e-05 ± 6.9e-06 | – | – | – | – | – | –
U30A C58G | 5.56e-05 ± 1.8e-05 | – | 8.28e-05 ± 2.5e-05 | – | 4.77e-05 ± 1.1e-05 | – | –
A14G C68A U69G | 0.000118 ± 2.9e-05 | – | 9.76e-05 ± 1.8e-05 | 0.000112 ± 2.8e-05 | – | – | –
